Source: doi:10.1101/2025.05.01.651538 (2025)

Tests used:
[1] = target: wild-type unmodified 147bp nucleosome (nucleosome core particle, human histones) (human)
[2] = target: wild-type 185bp nucleosome (nucleosome with symmetric flanking DNA, human histones) (human)

B1: KDM5A^CAT (KDM5A 1–801, minimal catalytically active construct) (domain or fragment)
chain: MAGVGPGGYAAEFVPPPECPVFEPSWEEFTDPLSFIGRIRPLAEKTGICKIRPPKDWQPPFACEVKSFRFTPRVQRLNELEAMTRVRLDFLDQLAKFWELQGSTLKIPVVERKILDLYALSKIVASKGGFEMVTKEKKWSKVGSRLGYLPGKGTGSLLKSHYERILYPYELFQSGVSLMGVQMPNLDLKEKVEPEVLSTDTQTSPEPGTRMNILPKRTRRVKTQSESGDVSRNTELKKLQIFGAGPKVVGLAMGTKDKEDEVTRRRKVTNRSDAFNMQMRQRKGTLSVNFVDLYVCMFCGRGNNEDKLLLCDGCDDSYHTFCLIPPLPDVPKGDWRCPKCVAEECSKPREAFGFEQAVREYTLQSFGEMADNFKSDYFNMPVHMVPTELVEKEFWRLVSSIEEDVIVEYGADISSKDFGSGFPVKDGRRKILPEEEEYALSGWNLNNMPVLEQSVLAHINVDISGMKVPWLYVGMCFSSFCWHIEDHWSYSINYLHWGEPKTWYGVPSHAAEQLEEVMRELAPELFESQPDLLHQLVTIMNPNVLMEHGVPVYRTNQCAGEFVVTFPRAYHSGFNQGYNFAEAVNFCTADWLPIGRQCVNHYRRLRRHCVFSHEELIFKMAADPECLDVGLAAMVCKELTLMTEEETRLRESVVQMGVLMSEEEVFELVPDDERQCSACRTTCFLSALTCSCNPERLVCLYHPTDLCPCPMQKKCLRYRYPLEDLPSLLYGVKVRAQSYDTWVSRVTEALSANFNHKKDLIELRVMLEDAEDRKYPENDLFRKLRDAVKEAETCASVAQLL
Work on B1 yielded a Kd [1] of 4 µM and a Kd [2] of 3 µM.
